Source: doi:10.1101/2024.10.16.618688
Values joined by “and” are separate entries in the source; they are usually repeats but may differ in a detail not shown here. Equal values may be shown once.

Assays:
[1] = target: NRX1β ECD (aa 81 - 311) labeled with Alexa Fluorophore 488 (mouse) (UniProt P0DI97); assay: fluorescence polarisation
[2] = target: full-length neuroligin 2 (NL2), wild type (mouse) (UniProt Q69ZK9); assay: cryo-EM structure

Kd [1] [µM]	stoichiometry N (NRX1β per NL2 dimer) [2]	stoichiometry N [2]	Substance
0.3			NL2 H279Y G282K mutant (from UniProt Q69ZK9 170-836) (natural protein)
	2 and 1		full-length neurexin 1β (NRX1β), wild type (from UniProt P0DI97 47-468) (natural protein)
6		2	full-length neuroligin 2 (NL2), wild type (from UniProt Q69ZK9 15-836) (natural protein)
